First the molecules themselves.
B1: GpH7-B3 variant H268_14T/GpL16-k0 (antibody, human IgG1, kappa)
heavy: not shown
light: DIVMTQSPLSLPVTPGEPASISCQASESLVHSNRNTYLHWYLQKPGQSPQLLIYKVSNRFSGVPDRFSGSGSGTDFTLKISRVEAEDVGVYYCSQNTHVPPTFGQGTKVEIERTVAAPSVFIFPPSDEQLKSGTASVVCLLNNFYPREAKVQWKVDNALQSGNSQESVTEQDSKDSTYSLSSTLTLSKADYEKHKVYACEVTHQGLSSPVTKSFNRGEC
notes: homodimerized; also called Ho Ab H268_14T
B2: GpH7-B3 variant I336_04F/GpL16-k0 (antibody, human IgG1, kappa)
heavy: not shown
light: DIVMTQSPLSLPVTPGEPASISCQASESLVHSNRNTYLHWYLQKPGQSPQLLIYKVSNRFSGVPDRFSGSGSGTDFTLKISRVEAEDVGVYYCSQNTHVPPTFGQGTKVEIERTVAAPSVFIFPPSDEQLKSGTASVVCLLNNFYPREAKVQWKVDNALQSGNSQESVTEQDSKDSTYSLSSTLTLSKADYEKHKVYACEVTHQGLSSPVTKSFNRGEC
notes: homodimerized; also called Ho Ab I336_04F
B3: GpH7-B3 variant I336_01G/GpL16-k0 (antibody, human IgG1, kappa)
heavy: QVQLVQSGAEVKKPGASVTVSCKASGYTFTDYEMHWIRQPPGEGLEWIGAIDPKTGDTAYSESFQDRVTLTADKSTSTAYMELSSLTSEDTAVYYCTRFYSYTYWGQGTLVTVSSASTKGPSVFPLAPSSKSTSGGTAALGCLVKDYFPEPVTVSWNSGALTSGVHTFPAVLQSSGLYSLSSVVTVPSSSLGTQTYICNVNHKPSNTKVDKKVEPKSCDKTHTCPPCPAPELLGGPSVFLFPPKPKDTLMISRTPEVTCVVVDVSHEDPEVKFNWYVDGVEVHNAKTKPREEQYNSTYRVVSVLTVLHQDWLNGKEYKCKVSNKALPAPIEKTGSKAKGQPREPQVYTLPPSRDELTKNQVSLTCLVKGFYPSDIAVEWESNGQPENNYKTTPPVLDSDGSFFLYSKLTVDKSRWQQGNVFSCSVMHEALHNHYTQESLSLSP
light: DIVMTQSPLSLPVTPGEPASISCQASESLVHSNRNTYLHWYLQKPGQSPQLLIYKVSNRFSGVPDRFSGSGSGTDFTLKISRVEAEDVGVYYCSQNTHVPPTFGQGTKVEIERTVAAPSVFIFPPSDEQLKSGTASVVCLLNNFYPREAKVQWKVDNALQSGNSQESVTEQDSKDSTYSLSSTLTLSKADYEKHKVYACEVTHQGLSSPVTKSFNRGEC
notes: homodimerized; also called Ho Ab I336_01G
B4: GpH7-B3 variant K326_14T/GpL16-k0 (antibody, human IgG1, kappa)
heavy: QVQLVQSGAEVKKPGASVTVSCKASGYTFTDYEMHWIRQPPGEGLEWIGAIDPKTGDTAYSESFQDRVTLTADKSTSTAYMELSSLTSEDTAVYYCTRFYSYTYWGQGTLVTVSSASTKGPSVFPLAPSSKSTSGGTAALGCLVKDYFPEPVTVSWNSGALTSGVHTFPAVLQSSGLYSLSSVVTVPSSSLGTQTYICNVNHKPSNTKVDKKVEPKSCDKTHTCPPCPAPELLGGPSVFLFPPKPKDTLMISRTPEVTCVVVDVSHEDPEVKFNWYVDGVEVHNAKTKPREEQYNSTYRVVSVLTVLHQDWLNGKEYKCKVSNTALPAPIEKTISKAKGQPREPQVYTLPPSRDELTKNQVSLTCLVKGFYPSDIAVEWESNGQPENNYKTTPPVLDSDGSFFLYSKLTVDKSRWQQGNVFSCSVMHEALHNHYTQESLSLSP
light: DIVMTQSPLSLPVTPGEPASISCQASESLVHSNRNTYLHWYLQKPGQSPQLLIYKVSNRFSGVPDRFSGSGSGTDFTLKISRVEAEDVGVYYCSQNTHVPPTFGQGTKVEIERTVAAPSVFIFPPSDEQLKSGTASVVCLLNNFYPREAKVQWKVDNALQSGNSQESVTEQDSKDSTYSLSSTLTLSKADYEKHKVYACEVTHQGLSSPVTKSFNRGEC
notes: homodimerized; also called Ho Ab K326_14T
B5: GpH7-B3 variant K326_18N/GpL16-k0 (antibody, human IgG1, kappa)
heavy: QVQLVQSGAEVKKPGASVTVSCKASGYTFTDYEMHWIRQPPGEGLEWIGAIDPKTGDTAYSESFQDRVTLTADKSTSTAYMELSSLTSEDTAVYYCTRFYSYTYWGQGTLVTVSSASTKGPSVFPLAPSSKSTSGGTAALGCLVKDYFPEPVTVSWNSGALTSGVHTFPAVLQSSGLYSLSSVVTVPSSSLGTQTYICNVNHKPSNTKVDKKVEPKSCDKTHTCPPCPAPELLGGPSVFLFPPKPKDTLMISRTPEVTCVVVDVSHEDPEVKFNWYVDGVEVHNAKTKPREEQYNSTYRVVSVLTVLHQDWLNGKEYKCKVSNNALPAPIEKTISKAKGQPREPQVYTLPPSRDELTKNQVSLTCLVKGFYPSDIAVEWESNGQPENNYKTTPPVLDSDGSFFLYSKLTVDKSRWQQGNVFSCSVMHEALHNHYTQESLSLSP
light: DIVMTQSPLSLPVTPGEPASISCQASESLVHSNRNTYLHWYLQKPGQSPQLLIYKVSNRFSGVPDRFSGSGSGTDFTLKISRVEAEDVGVYYCSQNTHVPPTFGQGTKVEIERTVAAPSVFIFPPSDEQLKSGTASVVCLLNNFYPREAKVQWKVDNALQSGNSQESVTEQDSKDSTYSLSSTLTLSKADYEKHKVYACEVTHQGLSSPVTKSFNRGEC
notes: homodimerized; also called Ho Ab K326_18N
B6: GpH7-B3 variant I336_02A/GpL16-k0 (antibody, human IgG1, kappa)
heavy: not shown
light: DIVMTQSPLSLPVTPGEPASISCQASESLVHSNRNTYLHWYLQKPGQSPQLLIYKVSNRFSGVPDRFSGSGSGTDFTLKISRVEAEDVGVYYCSQNTHVPPTFGQGTKVEIERTVAAPSVFIFPPSDEQLKSGTASVVCLLNNFYPREAKVQWKVDNALQSGNSQESVTEQDSKDSTYSLSSTLTLSKADYEKHKVYACEVTHQGLSSPVTKSFNRGEC
notes: homodimerized; also called Ho Ab I336_02A
B7: GpH7-B3 variant H268_20W/GpL16-k0 (antibody, human IgG1, kappa)
heavy: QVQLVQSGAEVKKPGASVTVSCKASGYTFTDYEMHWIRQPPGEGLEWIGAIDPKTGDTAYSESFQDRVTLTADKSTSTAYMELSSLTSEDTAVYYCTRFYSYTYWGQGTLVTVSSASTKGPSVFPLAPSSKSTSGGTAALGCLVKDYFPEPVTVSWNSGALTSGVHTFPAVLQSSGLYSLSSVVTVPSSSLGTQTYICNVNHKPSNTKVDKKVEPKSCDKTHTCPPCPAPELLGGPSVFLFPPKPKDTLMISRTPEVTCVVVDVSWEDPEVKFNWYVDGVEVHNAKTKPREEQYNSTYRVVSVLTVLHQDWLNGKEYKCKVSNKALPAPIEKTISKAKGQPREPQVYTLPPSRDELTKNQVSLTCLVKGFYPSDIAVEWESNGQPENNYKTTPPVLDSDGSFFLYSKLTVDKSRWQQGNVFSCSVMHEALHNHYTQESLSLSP
light: DIVMTQSPLSLPVTPGEPASISCQASESLVHSNRNTYLHWYLQKPGQSPQLLIYKVSNRFSGVPDRFSGSGSGTDFTLKISRVEAEDVGVYYCSQNTHVPPTFGQGTKVEIERTVAAPSVFIFPPSDEQLKSGTASVVCLLNNFYPREAKVQWKVDNALQSGNSQESVTEQDSKDSTYSLSSTLTLSKADYEKHKVYACEVTHQGLSSPVTKSFNRGEC
notes: homodimerized; also called Ho Ab H268_20W
B8: GpH7-B3 variant K334_10E/GpL16-k0 (antibody, human IgG1, kappa)
heavy: not shown
light: DIVMTQSPLSLPVTPGEPASISCQASESLVHSNRNTYLHWYLQKPGQSPQLLIYKVSNRFSGVPDRFSGSGSGTDFTLKISRVEAEDVGVYYCSQNTHVPPTFGQGTKVEIERTVAAPSVFIFPPSDEQLKSGTASVVCLLNNFYPREAKVQWKVDNALQSGNSQESVTEQDSKDSTYSLSSTLTLSKADYEKHKVYACEVTHQGLSSPVTKSFNRGEC
notes: homodimerized; also called Ho Ab K334_10E
B9: GpH7-B3 variant L234_03V/GpL16-k0 (antibody, human IgG1, kappa)
heavy: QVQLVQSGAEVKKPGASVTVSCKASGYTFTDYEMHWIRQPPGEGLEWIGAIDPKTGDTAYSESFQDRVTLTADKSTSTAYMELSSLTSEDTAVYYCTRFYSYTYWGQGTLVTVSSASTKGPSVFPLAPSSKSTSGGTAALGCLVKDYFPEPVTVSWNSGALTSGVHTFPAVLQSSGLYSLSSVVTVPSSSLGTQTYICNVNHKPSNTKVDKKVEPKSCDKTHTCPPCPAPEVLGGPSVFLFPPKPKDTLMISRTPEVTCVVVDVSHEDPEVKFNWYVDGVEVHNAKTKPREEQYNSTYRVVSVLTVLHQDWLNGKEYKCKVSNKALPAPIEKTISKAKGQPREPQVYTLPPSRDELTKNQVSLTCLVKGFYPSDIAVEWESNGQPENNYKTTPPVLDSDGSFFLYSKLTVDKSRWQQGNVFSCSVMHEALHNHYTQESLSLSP
light: DIVMTQSPLSLPVTPGEPASISCQASESLVHSNRNTYLHWYLQKPGQSPQLLIYKVSNRFSGVPDRFSGSGSGTDFTLKISRVEAEDVGVYYCSQNTHVPPTFGQGTKVEIERTVAAPSVFIFPPSDEQLKSGTASVVCLLNNFYPREAKVQWKVDNALQSGNSQESVTEQDSKDSTYSLSSTLTLSKADYEKHKVYACEVTHQGLSSPVTKSFNRGEC
notes: homodimerized; also called Ho Ab L234_03V
B10: GpH7-B3 variant I332_12R/GpL16-k0 (antibody, human IgG1, kappa)
heavy: not shown
light: DIVMTQSPLSLPVTPGEPASISCQASESLVHSNRNTYLHWYLQKPGQSPQLLIYKVSNRFSGVPDRFSGSGSGTDFTLKISRVEAEDVGVYYCSQNTHVPPTFGQGTKVEIERTVAAPSVFIFPPSDEQLKSGTASVVCLLNNFYPREAKVQWKVDNALQSGNSQESVTEQDSKDSTYSLSSTLTLSKADYEKHKVYACEVTHQGLSSPVTKSFNRGEC
notes: homodimerized; also called Ho Ab I332_12R
B11: GpH7-B3 variant I336_10E/GpL16-k0 (antibody, human IgG1, kappa)
heavy: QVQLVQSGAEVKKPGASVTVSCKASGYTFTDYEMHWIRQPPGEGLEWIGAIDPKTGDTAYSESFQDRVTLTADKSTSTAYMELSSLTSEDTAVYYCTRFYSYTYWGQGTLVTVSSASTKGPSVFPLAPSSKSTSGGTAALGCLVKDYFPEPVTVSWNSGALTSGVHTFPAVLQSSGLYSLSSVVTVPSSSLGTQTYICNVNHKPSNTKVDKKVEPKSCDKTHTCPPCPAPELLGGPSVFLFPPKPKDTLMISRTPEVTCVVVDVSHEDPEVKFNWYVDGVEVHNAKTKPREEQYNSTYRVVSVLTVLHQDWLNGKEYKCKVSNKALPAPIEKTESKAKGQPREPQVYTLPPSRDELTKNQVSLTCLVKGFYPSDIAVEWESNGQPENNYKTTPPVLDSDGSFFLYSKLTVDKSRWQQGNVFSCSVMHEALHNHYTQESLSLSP
light: DIVMTQSPLSLPVTPGEPASISCQASESLVHSNRNTYLHWYLQKPGQSPQLLIYKVSNRFSGVPDRFSGSGSGTDFTLKISRVEAEDVGVYYCSQNTHVPPTFGQGTKVEIERTVAAPSVFIFPPSDEQLKSGTASVVCLLNNFYPREAKVQWKVDNALQSGNSQESVTEQDSKDSTYSLSSTLTLSKADYEKHKVYACEVTHQGLSSPVTKSFNRGEC
notes: homodimerized; also called Ho Ab I336_10E
B12: GpH7-B3 variant K326_16H/GpL16-k0 (antibody, human IgG1, kappa)
heavy: not shown
light: DIVMTQSPLSLPVTPGEPASISCQASESLVHSNRNTYLHWYLQKPGQSPQLLIYKVSNRFSGVPDRFSGSGSGTDFTLKISRVEAEDVGVYYCSQNTHVPPTFGQGTKVEIERTVAAPSVFIFPPSDEQLKSGTASVVCLLNNFYPREAKVQWKVDNALQSGNSQESVTEQDSKDSTYSLSSTLTLSKADYEKHKVYACEVTHQGLSSPVTKSFNRGEC
notes: homodimerized; also called Ho Ab K326_16H
B13: GpH7-B3 variant K334_06M/GpL16-k0 (antibody, human IgG1, kappa)
heavy: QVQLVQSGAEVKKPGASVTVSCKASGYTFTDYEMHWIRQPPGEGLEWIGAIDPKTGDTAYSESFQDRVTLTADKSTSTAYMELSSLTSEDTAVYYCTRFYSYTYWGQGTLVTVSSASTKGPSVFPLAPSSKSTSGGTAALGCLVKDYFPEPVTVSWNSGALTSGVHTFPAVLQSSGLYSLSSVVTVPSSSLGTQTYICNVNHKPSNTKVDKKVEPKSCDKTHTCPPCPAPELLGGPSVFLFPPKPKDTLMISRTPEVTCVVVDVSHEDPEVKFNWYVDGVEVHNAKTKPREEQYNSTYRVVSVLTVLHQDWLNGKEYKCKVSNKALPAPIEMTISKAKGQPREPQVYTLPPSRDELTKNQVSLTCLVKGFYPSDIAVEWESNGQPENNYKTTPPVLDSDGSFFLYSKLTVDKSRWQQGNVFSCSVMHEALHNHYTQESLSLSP
light: DIVMTQSPLSLPVTPGEPASISCQASESLVHSNRNTYLHWYLQKPGQSPQLLIYKVSNRFSGVPDRFSGSGSGTDFTLKISRVEAEDVGVYYCSQNTHVPPTFGQGTKVEIERTVAAPSVFIFPPSDEQLKSGTASVVCLLNNFYPREAKVQWKVDNALQSGNSQESVTEQDSKDSTYSLSSTLTLSKADYEKHKVYACEVTHQGLSSPVTKSFNRGEC
notes: homodimerized; also called Ho Ab K334_06M
B14: GpH7-B3 variant K326_15Y/GpL16-k0 (antibody, human IgG1, kappa)
heavy: not shown
light: DIVMTQSPLSLPVTPGEPASISCQASESLVHSNRNTYLHWYLQKPGQSPQLLIYKVSNRFSGVPDRFSGSGSGTDFTLKISRVEAEDVGVYYCSQNTHVPPTFGQGTKVEIERTVAAPSVFIFPPSDEQLKSGTASVVCLLNNFYPREAKVQWKVDNALQSGNSQESVTEQDSKDSTYSLSSTLTLSKADYEKHKVYACEVTHQGLSSPVTKSFNRGEC
notes: homodimerized; also called Ho Ab K326_15Y
B15: GpH7-B3 variant L234_06M/GpL16-k0 (antibody, human IgG1, kappa)
heavy: not shown
light: DIVMTQSPLSLPVTPGEPASISCQASESLVHSNRNTYLHWYLQKPGQSPQLLIYKVSNRFSGVPDRFSGSGSGTDFTLKISRVEAEDVGVYYCSQNTHVPPTFGQGTKVEIERTVAAPSVFIFPPSDEQLKSGTASVVCLLNNFYPREAKVQWKVDNALQSGNSQESVTEQDSKDSTYSLSSTLTLSKADYEKHKVYACEVTHQGLSSPVTKSFNRGEC
notes: homodimerized; also called Ho Ab L234_06M
B16: GpH7-B3 variant K334_20W/GpL16-k0 (antibody, human IgG1, kappa)
heavy: not shown
light: DIVMTQSPLSLPVTPGEPASISCQASESLVHSNRNTYLHWYLQKPGQSPQLLIYKVSNRFSGVPDRFSGSGSGTDFTLKISRVEAEDVGVYYCSQNTHVPPTFGQGTKVEIERTVAAPSVFIFPPSDEQLKSGTASVVCLLNNFYPREAKVQWKVDNALQSGNSQESVTEQDSKDSTYSLSSTLTLSKADYEKHKVYACEVTHQGLSSPVTKSFNRGEC
notes: homodimerized; also called Ho Ab K334_20W
B17: GpH7-B3 variant I336_03V/GpL16-k0 (antibody, human IgG1, kappa)
heavy: not shown
light: DIVMTQSPLSLPVTPGEPASISCQASESLVHSNRNTYLHWYLQKPGQSPQLLIYKVSNRFSGVPDRFSGSGSGTDFTLKISRVEAEDVGVYYCSQNTHVPPTFGQGTKVEIERTVAAPSVFIFPPSDEQLKSGTASVVCLLNNFYPREAKVQWKVDNALQSGNSQESVTEQDSKDSTYSLSSTLTLSKADYEKHKVYACEVTHQGLSSPVTKSFNRGEC
notes: homodimerized; also called Ho Ab I336_03V
B18: GpH7-B3 variant I336_06M/GpL16-k0 (antibody, human IgG1, kappa)
heavy: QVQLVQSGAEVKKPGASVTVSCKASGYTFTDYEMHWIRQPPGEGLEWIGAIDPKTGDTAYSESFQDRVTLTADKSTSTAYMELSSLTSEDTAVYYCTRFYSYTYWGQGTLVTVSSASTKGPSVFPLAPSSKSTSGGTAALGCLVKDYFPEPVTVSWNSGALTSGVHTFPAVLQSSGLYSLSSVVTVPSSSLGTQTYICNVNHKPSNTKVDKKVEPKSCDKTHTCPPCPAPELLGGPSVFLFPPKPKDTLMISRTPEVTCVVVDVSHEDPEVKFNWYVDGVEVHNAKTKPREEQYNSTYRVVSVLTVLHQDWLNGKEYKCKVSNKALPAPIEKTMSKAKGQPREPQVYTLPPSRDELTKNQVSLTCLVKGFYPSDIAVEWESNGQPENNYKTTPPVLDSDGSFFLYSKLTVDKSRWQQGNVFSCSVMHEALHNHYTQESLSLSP
light: DIVMTQSPLSLPVTPGEPASISCQASESLVHSNRNTYLHWYLQKPGQSPQLLIYKVSNRFSGVPDRFSGSGSGTDFTLKISRVEAEDVGVYYCSQNTHVPPTFGQGTKVEIERTVAAPSVFIFPPSDEQLKSGTASVVCLLNNFYPREAKVQWKVDNALQSGNSQESVTEQDSKDSTYSLSSTLTLSKADYEKHKVYACEVTHQGLSSPVTKSFNRGEC
notes: homodimerized; also called Ho Ab I336_06M
B19: GpH7-B3 variant I336_18N/GpL16-k0 (antibody, human IgG1, kappa)
heavy: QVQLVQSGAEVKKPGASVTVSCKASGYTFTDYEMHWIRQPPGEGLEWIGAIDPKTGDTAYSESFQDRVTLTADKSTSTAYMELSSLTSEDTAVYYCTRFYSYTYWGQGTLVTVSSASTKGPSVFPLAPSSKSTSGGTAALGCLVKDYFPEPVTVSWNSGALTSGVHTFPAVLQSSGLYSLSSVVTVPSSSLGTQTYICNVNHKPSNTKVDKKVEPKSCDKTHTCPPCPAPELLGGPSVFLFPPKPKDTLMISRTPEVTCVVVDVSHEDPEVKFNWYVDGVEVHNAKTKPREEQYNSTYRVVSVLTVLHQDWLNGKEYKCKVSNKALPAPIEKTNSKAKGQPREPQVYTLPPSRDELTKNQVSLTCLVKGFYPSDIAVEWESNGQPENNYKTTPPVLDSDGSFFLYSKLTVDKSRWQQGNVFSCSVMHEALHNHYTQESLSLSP
light: DIVMTQSPLSLPVTPGEPASISCQASESLVHSNRNTYLHWYLQKPGQSPQLLIYKVSNRFSGVPDRFSGSGSGTDFTLKISRVEAEDVGVYYCSQNTHVPPTFGQGTKVEIERTVAAPSVFIFPPSDEQLKSGTASVVCLLNNFYPREAKVQWKVDNALQSGNSQESVTEQDSKDSTYSLSSTLTLSKADYEKHKVYACEVTHQGLSSPVTKSFNRGEC
notes: homodimerized; also called Ho Ab I336_18N
B20: GpH7-B3 variant K326_12R/GpL16-k0 (antibody, human IgG1, kappa)
heavy: not shown
light: DIVMTQSPLSLPVTPGEPASISCQASESLVHSNRNTYLHWYLQKPGQSPQLLIYKVSNRFSGVPDRFSGSGSGTDFTLKISRVEAEDVGVYYCSQNTHVPPTFGQGTKVEIERTVAAPSVFIFPPSDEQLKSGTASVVCLLNNFYPREAKVQWKVDNALQSGNSQESVTEQDSKDSTYSLSSTLTLSKADYEKHKVYACEVTHQGLSSPVTKSFNRGEC
notes: homodimerized; also called Ho Ab K326_12R
B21: GpH7-B3 variant L234_04F/GpL16-k0 (antibody, human IgG1, kappa)
heavy: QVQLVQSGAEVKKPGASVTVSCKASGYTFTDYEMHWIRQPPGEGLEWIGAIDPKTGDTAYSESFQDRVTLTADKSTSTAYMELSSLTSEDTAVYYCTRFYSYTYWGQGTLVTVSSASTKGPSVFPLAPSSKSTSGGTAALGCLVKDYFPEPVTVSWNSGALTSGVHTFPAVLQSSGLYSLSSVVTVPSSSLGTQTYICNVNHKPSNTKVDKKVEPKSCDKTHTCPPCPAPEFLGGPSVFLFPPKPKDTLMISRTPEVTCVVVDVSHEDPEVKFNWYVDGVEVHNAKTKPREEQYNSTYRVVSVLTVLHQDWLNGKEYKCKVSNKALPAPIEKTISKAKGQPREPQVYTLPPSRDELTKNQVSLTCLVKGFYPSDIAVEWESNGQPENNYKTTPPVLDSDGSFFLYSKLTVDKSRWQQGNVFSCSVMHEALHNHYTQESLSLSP
light: DIVMTQSPLSLPVTPGEPASISCQASESLVHSNRNTYLHWYLQKPGQSPQLLIYKVSNRFSGVPDRFSGSGSGTDFTLKISRVEAEDVGVYYCSQNTHVPPTFGQGTKVEIERTVAAPSVFIFPPSDEQLKSGTASVVCLLNNFYPREAKVQWKVDNALQSGNSQESVTEQDSKDSTYSLSSTLTLSKADYEKHKVYACEVTHQGLSSPVTKSFNRGEC
notes: homodimerized; also called Ho Ab L234_04F
B22: GpH7-B3 variant K334_12R/GpL16-k0 (antibody, human IgG1, kappa)
heavy: not shown
light: DIVMTQSPLSLPVTPGEPASISCQASESLVHSNRNTYLHWYLQKPGQSPQLLIYKVSNRFSGVPDRFSGSGSGTDFTLKISRVEAEDVGVYYCSQNTHVPPTFGQGTKVEIERTVAAPSVFIFPPSDEQLKSGTASVVCLLNNFYPREAKVQWKVDNALQSGNSQESVTEQDSKDSTYSLSSTLTLSKADYEKHKVYACEVTHQGLSSPVTKSFNRGEC
notes: homodimerized; also called Ho Ab K334_12R

The target of the assay is T1, FcγRIa (human, UniProt P12314 16-292).
T1 construct: extracellular domain; also called FcgRI; CD64
T1 sequence (P12314 16-292): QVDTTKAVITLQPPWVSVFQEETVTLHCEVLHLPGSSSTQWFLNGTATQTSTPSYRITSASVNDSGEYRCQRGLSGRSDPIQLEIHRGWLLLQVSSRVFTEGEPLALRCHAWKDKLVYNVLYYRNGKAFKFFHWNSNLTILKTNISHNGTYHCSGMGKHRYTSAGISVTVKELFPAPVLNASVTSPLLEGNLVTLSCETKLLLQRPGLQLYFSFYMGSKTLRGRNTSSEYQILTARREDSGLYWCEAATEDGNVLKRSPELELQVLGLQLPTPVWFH
As to the kind of experiment: SPR; vs GpH7-B3/GpL16-k0=100. In general terms: Surface plasmon resonance follows binding to a sensor surface in real time, without labels.
Consider B1, for which the Ho/Con_1a was 109 % of control. On to B2, for which the Ho/Con_1a is 104 % of control. B3: the Ho/Con_1a was 104 % of control. For B4 the value was 103 % of control; for B5, 102 % of control; for B6, 103 % of control.

B7: the Ho/Con_1a was 106 % of control. For the molecule B8, the Ho/Con_1a was 107 % of control.

Turning to B9, the Ho/Con_1a is 98.2 % of control. With B10, the Ho/Con_1a is 93.2 % of control. On to B11, for which the Ho/Con_1a is 107 % of control.

Take B12: the Ho/Con_1a was 101 % of control.

For B13, the Ho/Con_1a is 104 % of control. For B14, the Ho/Con_1a was 101 % of control. As to B15, the Ho/Con_1a is 96.5 % of control. For B16 the value was 104 % of control; for B17, 105 % of control; for B18, 104 % of control. As to B19, the Ho/Con_1a is 104 % of control. Take B20: the Ho/Con_1a is 100 % of control. With B21, the Ho/Con_1a is 93.5 % of control.

On to B22, for which the Ho/Con_1a was 102 % of control.

Source of the values: patent US20180155451A1 (published 2018).
